Results reported in paper PMC6993239.

Columns and labels:
[1] = target: recombinant human FcγRI, histidine-tagged (human) (UniProt P12314); experiment: SPR
[2] = target: recombinant human FcγRI, histidine-tagged (human) (UniProt P12314); experiment: SPR; Biacore T200; His-tagged huFcγRI (0.8 nM) captured on an anti-histidine antibody CM5 chip; pertuzumab or conjugates 0.78-100 nM as analyte, 5 min association, 5 min dissociation, 30 μL/min; HBS-P+ with 50 μM EDTA; 1:1 fit (RI set to 0)
[3] = target: histidine-tagged mouse FcγRI (mouse) (UniProt P26151); experiment: SPR; Biacore T200; His-tagged muFcγRI (2.4 nM) captured on an anti-histidine antibody CM5 chip; pertuzumab or conjugates as analyte, association and dissociation 120 s each; steady-state analysis
UniProt P26151, sequence (P26151 25-297): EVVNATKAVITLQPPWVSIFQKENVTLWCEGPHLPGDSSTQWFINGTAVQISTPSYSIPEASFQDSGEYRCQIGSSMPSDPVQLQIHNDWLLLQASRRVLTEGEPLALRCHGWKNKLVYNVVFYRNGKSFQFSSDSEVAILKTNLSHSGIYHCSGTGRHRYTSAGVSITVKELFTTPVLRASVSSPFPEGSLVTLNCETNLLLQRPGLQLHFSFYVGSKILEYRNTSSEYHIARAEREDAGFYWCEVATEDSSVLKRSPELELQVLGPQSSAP

UniProt P12314, sequence (P12314 16-292): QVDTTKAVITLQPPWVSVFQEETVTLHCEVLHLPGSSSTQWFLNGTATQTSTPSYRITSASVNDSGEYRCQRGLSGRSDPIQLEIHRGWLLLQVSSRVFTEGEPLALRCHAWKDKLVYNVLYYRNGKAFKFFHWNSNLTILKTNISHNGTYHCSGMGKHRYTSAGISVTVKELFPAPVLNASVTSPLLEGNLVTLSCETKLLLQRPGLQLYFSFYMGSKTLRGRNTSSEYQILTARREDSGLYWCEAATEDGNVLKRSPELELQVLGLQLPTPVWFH

Row | Substance | koff [1] | interaction half-time [2] | Kd [3] | Kd [2]
1 | DFO-^nsspertuzumab | 0.00156 s⁻¹ | – | – | –
2 | DFO-^nsspertuzumab (antibody) | – | 7.4 min | 250 nM | 4.1 nM
3 | native pertuzumab (antibody) | – | 7.3 min | 250 nM | –

Continued, values first:

Row | koff [1] | interaction half-time [2] | Kd [3] | Kd [2] | Substance
4 | 0.00387 s⁻¹ | – | – | – | DFO-^sspertuzumab-EndoS
5 | – | 8 min | 210 nM | – | DFO-^sspertuzumab-βGal (antibody)
6 | – | 3 min | 1100 nM | 17.4 nM | DFO-^sspertuzumab-EndoS (antibody)
